Results from patent publication US6521814B1, “Use of ligands for treatment of diseases responsive to retinoids” (Institut National de la Santa et de la Recherche Medicale, priority 1997, dated 2003).

What was measured:
D2R promoter = D2R promoter CAT reporter assay in transfected COS-1 cells, reporter alone; type: cell-based, rat; conditions: C1 reporter-transfected COS-1 cells, no receptor vector; 10^−7 M
Description: Expression Vectors. The C1 reporter construct was obtained by subcloning the HindIII fragment spanning the 5 ′ promoter region of the D2R gene (positions −495 to +273), in the reporter plasmid pBLCAT3 (Luckow, B. & Schütz, G., Nucleic Acids Res. 15:5490 (1987)). The C2 reporter plasmid was constructed by subcloning the SmaI-XhoI fragment (positions −76 to +273) in the same position. The C3 and C4 reporters were generated by cloning a 29 bp synthetic oligonucleotide corresponding, respectively, to the natural rat D2R RARE sequence and the mutated one into pBLCAT2 (Luckow, B. & Schütz, G., Nucleic Acids Res. 15:5490 (1987)). The polylinker in pBLCAT2 is located upstream of the herpes simplex virus 1 (HSV1) thymidine kinase (TK) promoter, from position −105 to +51. To measure transfection efficiency the plasmid pCH110 carrying the β-galactosidase gene (Pharmacia) was used. Mouse […], as well as mouse RXRα, β and γ expression vectors were derived from the parental pSG5 vector (Green, S., et al., Nucleic Acids Res. 16:369 (1988)).
COS-1 cells were used for transient transfection assays. Cells were grown in Dulbecco's modified Eagle's medium supplemented with 5% fetal calf serum.
Several hours before transfection, the medium was replaced with fresh medium containing 5% charcoal-treated FCS. […]

RARα/RXRγ = target: T1, RARα/RXRγ (Mus musculus, UniProt P11416;P28705 P11416:1-462,P28705:1-463); test: cell_activity; C3 TK-CAT reporter with one RARE D2 copy, t-RA and 9-cis-RA; conditions: tags: pSG5 expression vectors, COS-1 cells; label: 32P
T1 sequence 1: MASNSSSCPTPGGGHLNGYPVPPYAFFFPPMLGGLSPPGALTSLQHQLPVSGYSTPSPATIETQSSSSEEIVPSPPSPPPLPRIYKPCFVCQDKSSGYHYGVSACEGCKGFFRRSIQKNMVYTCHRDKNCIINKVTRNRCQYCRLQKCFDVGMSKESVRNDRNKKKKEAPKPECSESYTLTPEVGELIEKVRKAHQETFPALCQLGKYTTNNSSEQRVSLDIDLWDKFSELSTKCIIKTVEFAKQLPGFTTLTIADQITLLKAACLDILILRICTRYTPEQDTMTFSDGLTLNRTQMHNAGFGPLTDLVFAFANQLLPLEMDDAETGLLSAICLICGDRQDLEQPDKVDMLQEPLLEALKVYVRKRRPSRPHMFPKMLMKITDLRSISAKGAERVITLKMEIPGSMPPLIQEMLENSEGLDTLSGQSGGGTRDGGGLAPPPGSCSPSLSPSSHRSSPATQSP
T1 sequence 2: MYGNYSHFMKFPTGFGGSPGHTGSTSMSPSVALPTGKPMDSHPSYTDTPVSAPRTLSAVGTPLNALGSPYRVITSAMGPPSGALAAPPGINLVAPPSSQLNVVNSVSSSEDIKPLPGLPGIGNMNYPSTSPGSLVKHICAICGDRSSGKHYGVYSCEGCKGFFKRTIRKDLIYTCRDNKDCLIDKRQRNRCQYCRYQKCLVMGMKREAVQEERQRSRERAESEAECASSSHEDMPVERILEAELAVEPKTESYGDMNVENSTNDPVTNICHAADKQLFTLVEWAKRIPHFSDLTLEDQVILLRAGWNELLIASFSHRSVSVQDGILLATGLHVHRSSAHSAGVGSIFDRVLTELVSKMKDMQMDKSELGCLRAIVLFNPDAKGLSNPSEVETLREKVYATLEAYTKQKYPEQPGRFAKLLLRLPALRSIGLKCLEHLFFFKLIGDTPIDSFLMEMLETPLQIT
Description: Bars represent the mean of several independent experiments and standard deviations are indicated.
Several hours before transfection, the medium was replaced with fresh medium containing 5% charcoal-treated FCS. Cells (10^6 per 10 cm plate) were transfected by the calcium phosphate method using 2 μg of the reporter plasmid, 0.1 μg of retinoid acid receptor expression vectors and 0.5 μg of pCH110. In all transfection assays, the Bluescript (SK^-) plasmid was used as a carrier to reach 20 μg of total transfected DNA per plate.

[1] = target: T2, RARα(ΔAB)/RXRα(ΔAB) heterodimer (Mus musculus, UniProt P11416;P28700 P11416:88-462,P28700:140-467); test: competition; no competition even at 100-fold excess; conditions: tags: ΔAB truncations, bacterially expressed, from H. Gronemeyer
T2 sequence 1: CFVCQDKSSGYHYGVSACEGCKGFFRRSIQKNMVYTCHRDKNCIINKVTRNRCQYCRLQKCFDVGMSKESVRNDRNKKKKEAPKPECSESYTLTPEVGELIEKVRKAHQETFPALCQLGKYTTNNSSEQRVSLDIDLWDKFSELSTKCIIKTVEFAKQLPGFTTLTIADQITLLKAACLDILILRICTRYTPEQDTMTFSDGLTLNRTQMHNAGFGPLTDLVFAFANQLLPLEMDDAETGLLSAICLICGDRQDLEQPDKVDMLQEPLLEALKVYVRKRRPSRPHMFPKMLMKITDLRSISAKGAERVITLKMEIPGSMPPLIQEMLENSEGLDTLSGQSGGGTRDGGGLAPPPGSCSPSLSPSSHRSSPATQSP
T2 sequence 2: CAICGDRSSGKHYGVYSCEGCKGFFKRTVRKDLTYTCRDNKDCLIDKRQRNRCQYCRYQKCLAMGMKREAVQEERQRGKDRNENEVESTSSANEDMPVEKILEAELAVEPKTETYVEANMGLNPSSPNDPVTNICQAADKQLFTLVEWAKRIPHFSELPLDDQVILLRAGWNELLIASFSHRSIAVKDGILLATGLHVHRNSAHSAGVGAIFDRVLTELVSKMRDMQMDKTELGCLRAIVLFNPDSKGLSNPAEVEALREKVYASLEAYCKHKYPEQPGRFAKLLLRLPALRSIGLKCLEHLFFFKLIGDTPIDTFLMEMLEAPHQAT
Description: (§1) DNA binding competition assays. Gel shift analysis using labeled RARE D2 (SEQ ID NO:2) and recombinant RARα and RXRα as indicated. As competitors, RARE D2 (SEQ ID NO:2), RAREβ2 (SEQ ID NO:5) and the mutant […] and […] cold oligonucleotides (SEQ ID NO:3) were used as indicated at 5, 50- and 100-fold molar excess. The black arrowhead indicates the shifted complex.
(§2) To further characterize the D2R RARE element and its binding affinity to retinoid receptors, mutations were introduced into this sequence generating D2 ml (SEQ ID NO:3) and D2 m2 (SEQ ID NO:4) (FIG. 7A). These mutated oligonucleotides were used for competition in gel-shift assays (FIG. 8).
(§3) DNA Binding Assays. A 29-bp synthetic oligonucleotide (SEQ ID NO:2) corresponding to the RARE region in the D2R promoter (SEQ ID NO:1) (from positions −76 to −49), in addition to two mutated oligonucleotides (SEQ ID NOs:3 and 4) (FIG. 7A) were used in gel retardation assays. A synthetic oligonucleotide corresponding to the RARE-β2 (SEQ ID NO:5) (Mader, S., et al., *J. Biol. Chem.* 268:591–600 (1993)) was used as positive control. Bacterially-expressed purified mouse RARα (ΔAB) and RXRα (ΔAB) proteins were kindly provided by H. Gronemeyer.

[2] = target: T2, RARα(ΔAB)/RXRα(ΔAB) heterodimer; test: competition; drastic decrease of labeled RARE D2 complex at 5-fold excess, complete at 50-fold; stronger than RARE D2; conditions: tags: ΔAB truncations, bacterially expressed, from H. Gronemeyer
Description: as §1, §3

[3] = target: T2, RARα(ΔAB)/RXRα(ΔAB) heterodimer; test: competition; competes more efficiently than native RARE D2; conditions: tags: ΔAB truncations, bacterially expressed, from H. Gronemeyer
Description: as §1, §2, §3

CC1=C(/C=C/C(C)=C\C=C\C(C)=C\C(=O)O)C(C)(C)CCC1 [9-cis-RA, 9-cis RA]
changes in CAT activity (D2R promoter): no significant changes

B1: RARE D2 (dsDNA)
DNA 1: AGCTTCCTCGTGGCCAGGGTGACCCCGCG
DNA 2: CGCGGGGTCACCCTGGCCACGAGGAAGCT
activity (RARα/RXRγ): 11 fold

B2: D2m1 (dsDNA)
DNA 1: AGCTTCCTCGGTGCGAGGGGTACGCCGCG
DNA 2: CGCGGCGTACCCCTCGCACCGAGGAAGCT
binding result [1]: no binding

B3: RAREβ2 (dsDNA)
DNA 1: GGGTAGGGTTCACCGAAAGTTCACTG
DNA 2: CAGTGAACTTTCGGTGAACCCTACCC
binding result [2]: binds

B4: D2m2 (dsDNA)
DNA 1: AGCTTCCTCGTGACCAGGGTGACCCCGCG
DNA 2: CGCGGGGTCACCCTGGTCACGAGGAAGCT
binding result [3]: binds
